From the supplement of paper PMC5998384

Columns and labels:
[1] = test system: HeLa Kyoto; assay: solubility change mitosis vs G1/S (difference of NP-40 vs SDS log2 ratios) (log2 ratio difference); higher = more soluble in mitosis
[2] = test system: HeLa Kyoto; assay: solubility in G1/S (NP-40 vs SDS abundance) (log2 ratio); higher = more soluble; settings: cell cycle stage: G1/S
[3] = test system: HeLa Kyoto; assay: melting temperature (median over replicates), in situ; higher = more thermally stable
[4] = test system: HeLa Kyoto; assay: thermal stability score vs G1/S (z-score of summed log2 fold changes over temperatures); higher = more thermally stable than in G1/S
[5] = cell cycle stage: early G1 (4.5 h after nocodazole release)
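Wherever melting temperature (median over replicates), in situ is given: HeLa Kyoto cells synchronized by double thymidine or nocodazole block, proteins quantified by TMT10plex mass spectrometry, three independent biological replicates.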
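Wherever solubility change mitosis vs G1/S (difference of NP-40 vs SDS log2 ratios) is given: synchronized HeLa Kyoto cells (double thymidine block for G1/S, nocodazole release for mitosis), protein amounts in NP-40 versus SDS lysates quantified by mass spectrometry, three biological replicates.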
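Wherever solubility in G1/S (NP-40 vs SDS abundance) is given: HeLa Kyoto cells arrested at G1/S by double thymidine block, proteins quantified by TMT10plex mass spectrometry in mild NP-40 versus SDS extracts, three biological replicates.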
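Wherever thermal stability score vs G1/S (z-score of summed log2 fold changes over temperatures) is given: synchronized HeLa Kyoto cells, proteins quantified by TMT10plex mass spectrometry, three biological replicates, mitosis taken 0.5 h after nocodazole release, G1/S directly after double thymidine block.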

| Substance | solubility change mitosis (log2) [1] | solubility in G1/S (log2) [2] | melting temperature ([3]; cell cycle stage: G1/S) | melting temperature ([3]; cell cycle stage: mitosis) | thermal stability score [4, 5] | thermal stability score ([4]; cell cycle stage: mitosis) |
| --- | --- | --- | --- | --- | --- | --- |
| MTKREAEELIEIEIDGTEKAECTEESIVEQTYAPAECVSQAIDINEPIGNLKKLLEPRLQCSLDAHEICLQDIQLDPERSLFDQGVKTDGTVQLSVQVISYQGIEPKLNILEIVKPADTVEVVIDPDAHHAESEAHLVEEAQVITLDGTKHITTISDETSEQVTRWAAALEGYRKEQERLGIPYDPIQWSTDQVLHWVVWVMKEFSMTDIDLTTLNISGRELCSLNQEDFFQRVPRGEILWSHLELLRKYVLASQEQQMNEIVTIDQPVQIIPASVQSATPTTIKVINSSAKAAKVQRAPRISGEDRSSPGNRTGNNGQIQLWQFLLELLTDKDARDCISWVGDEGEFKLNQPELVAQKWGQRKNKPTMNYEKLSRALRYYYDGDMICKVQGKRFVYKFVCDLKTLIGYSAAELNRLVTECEQKKLAKMQLHGIAQPVTAVALATASLQTEKDN [GABPA] | -0.178 | 0.0182 | 48 °C | 49.9 °C | 0.986 | 1.79 |
| MAQHFSLAACDVVGFDLDHTLCRYNLPESAPLIYNSFAQFLVKEKGYDKELLNVTPEDWDFCCKGLALDLEDGNFLKLANNGTVLRASHGTKMMTPEVLAEAYGKKEWKHFLSDTGMACRSGKYYFYDNYFDLPGALLCARVVDYLTKLNNGQKTFDFWKDIVAAIQHNYKMSAFKENCGIYFPEIKRDPGRYLHSCPESVKKWLRQLKNAGKILLLITSSHSDYCRLLCEYILGNDFTDLFDIVITNALKPGFFSHLPSQRPFRTLENDEEQEALPSLDKPGWYSQGNAVHLYELLKKMTGKPEPKVVYFGDSMHSDIFPARHYSNWETVLILEELRGDEGTRSQRPEESEPLEKKGKYEGPKAKPLNTSSKKWGSFFIDSVLGLENTEDSLVYTWSCKRISTYSTIAIPSIEAIAELPLDYKFTRFSSSNSKTAGYYPNPPLVLSSDETLISK [NT5DC1] | -0.212 | 0.0982 | 55.5 °C | 55.7 °C | 0.00809 | -0.565 |
| MDVNIAPLRAWDDFFPGSDRFARPDFRDISKWNNRVVSNLLYYQTNYLVVAAMMISIVGFLSPFNMILGGIVVVLVFTGFVWAAHNKDVLRRMKKRYPTTFVMVVMLASYFLISMFGGVMVFVFGITFPLLLMFIHASLRLRNLKNKLENKMEGIGLKRTPMGIVLDALEQQEEGINRLTDYISKVKE [ARL6IP5] | -0.126 | -0.0879 | 56.4 °C | 57.5 °C | 0.94 | 0.797 |
| MGEKSENCGVPEDLLNGLKVTDTQEAECAGPPVPDPKNQHSQSKLLRDDEAHLQEDQGEEECFHDCSASFEEEPGADKVENKSNEDVNSSELDEEYLIELEKNMSDEEKQKRREESTRLKEEGNEQFKKGDYIEAESSYSRALEMCPSCFQKERSILFSNRAAARMKQDKKEMAINDCSKAIQLNPSYIRAILRRAELYEKTDKLDEALEDYKSILEKDPSIHQAREACMRLPKQIEERNERLKEEMLGKLKDLGNLVLRPFGLSTENFQIKQDSSTGSYSINFVQNPNNNR [TTC1] | 0.183 | 0.455 | 56.2 °C | 56.4 °C | -3 | -2.41 |
| MAPGQLALFSVSDKTGLVEFARNLTALGLNLVASGGTAKALRDAGLAVRDVSELTGFPEMLGGRVKTLHPAVHAGILARNIPEDNADMARLDFNLIRVVACNLYPFVKTVASPGVTVEEAVEQIDIGGVTLLRAAAKNHARVTVVCEPEDYVVVSTEMQSSESKDTSLETRRQLALKAFTHTAQYDEAISDYFRKQYSKGVSQMPLRYGMNPHQTPAQLYTLQPKLPITVLNGAPGFINLCDALNAWQLVKELKEALGIPAAASFKHVSPAGAAVGIPLSEDEAKVCMVYDLYKTLTPISAAYARARGADRMSSFGDFVALSDVCDVPTAKIISREVSDGIIAPGYEEEALTILSKKKNGNYCVLQMDQSYKPDENEVRTLFGLHLSQKRNNGVVDKSLFSNVVTKNKDLPESALRDLIVATIAVKYTQSNSVCYAKNGQVIGIGAGQQSRIHCTRLAGDKANYWWLRHHPQVLSMKFKTGVKRAEISNAIDQYVTGTIGEDEDLIKWKALFEEVPELLTEAEKKEWVEKLTEVSISSDAFFPFRDNVDRAKRSGVAYIAAPSGSAADKVVIEACDELGIILAHTNLRLFHH [ATIC] | -0.093 | 0.0708 | 54.4 °C | 54.4 °C | -0.0275 | 1.16 |
| MSGLVLGQRDEPAGHRLSQEEILGSTRLVSQGLEALRSEHQAVLQSLSQTIECLQQGGHEEGLVHEKARQLRRSMENIELGLSEAQVMLALASHLSTVESEKQKLRAQVRRLCQENQWLRDELAGTQQRLQRSEQAVAQLEEEKKHLEFLGQLRQYDEDGHTSEEKEGDATKDSLDDLFPNEEEEDPSNGLSRGQGATAAQQGGYEIPARLRTLHNLVIQYAAQGRYEVAVPLCKQALEDLERTSGRGHPDVATMLNILALVYRDQNKYKEAAHLLNDALSIRESTLGPDHPAVAATLNNLAVLYGKRGKYKEAEPLCQRALEIREKVLGTNHPDVAKQLNNLALLCQNQGKYEAVERYYQRALAIYEGQLGPDNPNVARTKNNLASCYLKQGKYAEAETLYKEILTRAHVQEFGSVDDDHKPIWMHAEEREEMSKSRHHEGGTPYAEYGGWYKACKVSSPTVNTTLRNLGALYRRQGKLEAAETLEECALRSRRQGTDPISQTKVAELLGESDGRRTSQEGPGDSVKFEGGEDASVAVEWSGDGSGTLQRSGSLGKIRDVLRRSSELLVRKLQGTEPRPSSSNMKRAASLNYLNQPSAAPLQVSRGLSASTMDLSSSS [KLC4] | -0.12 | 0.299 | 49.8 °C | 51.3 °C | 0.719 | 1.19 |
| MSDLLLLGLIGGLTLLLLLTLLAFAGYSGLLAGVEVSAGSPPIRNVTVAYKFHMGLYGETGRLFTESCSISPKLRSIAVYYDNPHMVPPDKCRCAVGSILSEGEESPSPELIDLYQKFGFKVFSFPAPSHVVTATFPYTTILSIWLATRRVHPALDTYIKERKLCAYPRLEIYQEDQIHFMCPLARQGDFYVPEMKETEWKWRGLVEAIDTQVDGTGADTMSDTSSVSLEVSPGSRETSAATLSPGASSRGWDDGDTRSEHSYSESGASGSSFEELDLEGEGPLGESRLDPGTEPLGTTKWLWEPTAPEKGKE [TEX264] | -0.257 | -0.0622 | 51.2 °C | 51.2 °C | 0.0754 | -0.347 |
| MNSPGGRGKKKGSGGASNPVPPRPPPPCLAPAPPAAGPAPPPESPHKRNLYYFSYPLFVGFALLRLVAFHLGLLFVWLCQRFSRALMAAKRSSGAAPAPASASAPAPVPGGEAERVRVFHKQAFEYISIALRIDEDEKAGQKEQAVEWYKKGIEELEKGIAVIVTGQGEQCERARRLQAKMMTNLVMAKDRLQLLEKMQPVLPFSKSQTDVYNDSTNLACRNGHLQSESGAVPKRKDPLTHTSNSLPRSKTVMKTGSAGLSGHHRAPSYSGLSMVSGVKQGSGPAPTTHKGTPKTNRTNKPSTPTTATRKKKDLKNFRNVDSNLANLIMNEIVDNGTAVKFDDIAGQDLAKQALQEIVILPSLRPELFTGLRAPARGLLLFGPPGNGKTMLAKAVAAESNATFFNISAASLTSKYVGEGEKLVRALFAVARELQPSIIFIDEVDSLLCERREGEHDASRRLKTEFLIEFDGVQSAGDDRVLVMGATNRPQELDEAVLRRFIKRVYVSLPNEETRLLLLKNLLCKQGSPLTQKELAQLARMTDGYSGSDLTALAKDAALGPIRELKPEQVKNMSASEMRNIRLSDFTESLKKIKRSVSPQTLEAYIRWNKDFGDTTV [SPAST] | -0.012 | 0.427 | 48.8 °C | 49.3 °C | 0.0551 | 1.16 |
| MGDMKTPDFDDLLAAFDIPDIDANEAIHSGPEENEGPGGPGKPEPGVGSESEDTAAASAGDGPGVPAQASDHGLPPPDISVVSVIVKNTVCPEQSEALAGGSAGDGAQAAGVTKEGPVGPHRMQNGFGSPEPSLPGTPHSPAPPSGGTWKEKGMEGKTPLDLFAHFGPEPGDHSDPLPPSAPSPTREGALTPPPFPSSFELAQENGPGMQPPVSSPPLGALKQESCSPHHPQVLAQQGSGSSPKATDIPASASPPPVAGVPFFKQSPGHQSPLASPKVPVCQPLKEEDDDEGPVDKSSPGSPQSPSSGAEAADEDSNDSPASSSSRPLKVRIKTIKTSCGNITRTVTQVPSDPDPPAPLAEGAFLAEASLLKLSPATPTSEGPKVVSVQLGDGTRLKGTVLPVATIQNASTAMLMAASVARKAVVLPGGTATSPKMIAKNVLGLVPQALPKADGRAGLGTGGQKVNGASVVMVQPSKTATGPSTGGGTVISRTQSSLVEAFNKILNSKNLLPAYRPNLSPPAEAGLALPPTGYRCLECGDAFSLEKSLARHYDRRSMRIEVTCNHCARRLVFFNKCSLLLHAREHKDKGLVMQCSHLVMRPVALDQMVGQPDITPLLPVAVPPVSGPLALPALGKGEGAITSSAITTVAAEAPVLPLSTEPPAAPATSAYTCFRCLECKEQCRDKAGMAAHFQQLGPPAPGATSNVCPTCPMMLPNRCSFSAHQRMHKNRPPHVCPECGGNFLQANFQTHLREACLHVSRRVGYRCPSCSVVFGGVNSIKSHIQTSHCEVFHKCPICPMAFKSGPSAHAHLYSQHPSFQTQQAKLIYKCAMCDTVFTHKPLLSSHFDQHLLPQRVSVFKCPSCPLLFAQKRTMLEHLKNTHQSGRLEETAGKGAGGALLTPKTEPEELAVSQGGAAPATEESSSSSEEEEVPSSPEPPRPAKRPRRELGSKGLKGGGGGPGGWTCGLCHSWFPERDEYVAHMKKEHGKSVKKFPCRLCERSFCSAPSLRRHVRVNHEGIKRVYPCRYCTEGKRTFSSRLILEKHVQVRHGLQLGAQSPGRGTTLARGSSARAQGPGRKRRQSSDSCSEEPDSTTPPAKSPRGGPGSGGHGPLRYRSSSSTEQSLMMGLRVEDGAQQCLDCGLCFASPGSLSRHRFISHKKRRGVGKASALGLGDGEEEAPPSRSDPDGGDSPLPASGGPLTCKVCGKSCDSPLNLKTHFRTHGMAFIRARQGAVGDN [ZNF687] | 0.08 | -0.224 | 49 °C | 50.3 °C | 0.612 | 1.77 |
| MGEPQGSMRILVTGGSGLVGKAIQKVVADGAGLPGEDWVFVSSKDADLTDTAQTRALFEKVQPTHVIHLAAMVGGLFRNIKYNLDFWRKNVHMNDNVLHSAFEVGARKVVSCLSTCIFPDKTTYPIDETMIHNGPPHNSNFGYSYAKRMIDVQNRAYFQQYGCTFTAVIPTNVFGPHDNFNIEDGHVLPGLIHKVHLAKSSGSALTVWGTGNPRRQFIYSLDLAQLFIWVLREYNEVEPIILSVGEEDEVSIKEAAEAVVEAMDFHGEVTFDTTKSDGQFKKTASNSKLRTYLPDFRFTPFKQAVKETCAWFTDNYEQARK [TSTA3] | -0.116 | 0.141 | 59.3 °C | 58.2 °C | -3.68 | -2.17 |
| RALGAPA1 | -0.16 | -0.0986 | 50.2 °C | 50.8 °C | -0.328 | -0.518 |
| CEP170 | 0.0625 | -0.112 | 50.3 °C | 51.5 °C | 0.653 | 2.64 |
| MALLCYNRGCGQRFDPETNSDDACTYHPGVPVFHDALKGWSCCKRRTTDFSDFLSIVGCTKGRHNSEKPPEPVKPEVKTTEKKELCELKPKFQEHIIQAPKPVEAIKRPSPDEPMTNLELKISASLKQALDKLKLSSGNEENKKEEDNDEIKIGTSCKNGGCSKTYQGLESLEEVCVYHSGVPIFHEGMKYWSCCRRKTSDFNTFLAQEGCTKGKHMWTKKDAGKKVVPCRHDWHQTGGEVTISVYAKNSLPELSRVEANSTLLNVHIVFEGEKEFDQNVKLWGVIDVKRSYVTMTATKIEITMRKAEPMQWASLELPAAKKQEKQKDATTD [CHORDC1] | -0.122 | 0.0558 | 52 °C | 52.4 °C | -0.00128 | 0.22 |
